The source of these data is patent US20210147552A1 (UNIVERSITETET I OSLO, published 2021).

First the molecules themselves.
B3: 12mer DQ2.5-glia-α1a peptide (free) (peptide)
peptide: QLQPFPQPELPY
notes: also called free peptide
B4: 33mer α-gliadin peptide (peptide)
peptide: LQLQPFPQPELPYPQPELPYPQPELPYPQPQPF
B5: R3A2-9F hIgG1 (antibody)
heavy: not shown
light: DIQVTQSPSFLSASVGDRVTITCRASHDISSYLAWYQHKPGKAPKLLIHAASILQSGVPSRFSGSGSGTEFTLTISSLQPEDFATYYCQDLNSYPLFGQGTRLEIKRTVAAPSVFIFPPSDEQLKSGTASVVCLLNNFYPREAKVQWKVDNALQSGNSQESVTEQDSKDSTYSLSSTLTLSKADYEKHKVYACEVTHQGLSSPVTKSFNRGEC
notes: also called mAb R3A2-9F
B6: R4A1-3A (107) hIgG1 (antibody, V domains shown)
VH: QVQLQQSGPGLVKPSQTLSLTCAISGDSVSSNSAAWNWIRQSPSRGLEWLGRTYYRSKWYNDYAVSVKSRITINPDTSKNQFSLQLNSVTPEDTAVYYCARDSSSGWHPYGMDVWGQGTTVTVSS
VL: DIQVTQSPSFLSASVGDRVTITCRASHDISSYLAWYQHKPWKAPKLLIHAASILQSGVPSRFSGSGSGTEFTLTISSLQPEDFATYYCQDLNSYPLFGQGTRLEIKR
notes: full-length human IgG1/kappa made in HEK293E; heavy chain constant region with N297G; also called mAb R4A1-3A
B7: R2A1-8E hIgG1 (antibody, V domains shown)
VH: QVQLQQSGPGLVKPSQTLSLTCAISGDSVSSNSAAWNWIRQSPSRGLEWLGRTYYRSKWYNDYAVSVKSRITINPDTSKNQFSLQLNSVTPEDTAVYYCARDSSSGWHPYGMDVWGQGTTVTVSS
VL: DIQVTQSPSFLSASVGDRVTITCRASHDISSYLAWYQHKPGKAPKLLIHAASILQSGVPSRFSGSGSGTEFTLTISSLQPEDFATYYCQQLNSYPLLTFGGGTKVDIKR
notes: full-length human IgG1/kappa made in HEK293E; heavy chain constant region with N297G; also called mAb R2A1-8E
B8: 12mer DQ2.5-glia-α2 peptide (free) (peptide)
peptide: PQPELPYPQPQL
notes: also called free peptide

Test [1] deals with T1, BSA (Bos taurus, UniProt P02769).
T1 construct: not specified; also called bovine serum albumin
T1 sequence (P02769 25-607 limits assumed): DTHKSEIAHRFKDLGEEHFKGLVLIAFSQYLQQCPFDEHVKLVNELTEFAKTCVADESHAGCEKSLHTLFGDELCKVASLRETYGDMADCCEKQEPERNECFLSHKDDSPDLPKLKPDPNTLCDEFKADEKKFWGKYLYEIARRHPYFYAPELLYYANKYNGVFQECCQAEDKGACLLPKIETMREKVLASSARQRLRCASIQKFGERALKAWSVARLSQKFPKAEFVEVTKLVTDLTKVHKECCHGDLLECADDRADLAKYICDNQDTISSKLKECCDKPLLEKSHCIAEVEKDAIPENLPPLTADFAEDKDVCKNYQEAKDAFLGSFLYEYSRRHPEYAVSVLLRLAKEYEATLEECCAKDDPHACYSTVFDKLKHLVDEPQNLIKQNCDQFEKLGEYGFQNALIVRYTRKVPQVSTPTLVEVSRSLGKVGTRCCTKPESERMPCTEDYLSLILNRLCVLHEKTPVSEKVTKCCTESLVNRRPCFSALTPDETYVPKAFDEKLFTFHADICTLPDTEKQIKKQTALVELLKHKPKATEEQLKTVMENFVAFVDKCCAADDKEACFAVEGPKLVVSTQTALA
The test is described as follows: ELISA, hIgG1, control well with BSA. The method, then:
FIG. 14. […] The peptides are annotated according to Sollid, L. M., et al., (Immunogenetics, 2012, 64(6): 455-460) (A). […] Error bars illustrate mean±SD of duplicates. […] HSA=human serum albumin; BSA=bovine serum albumin.
Assays were performed at RT with duplicate wells. Between each layer, the plates were washed 3× with PBST.
Background: ELISA stands for enzyme-linked immunosorbent assay.

Test [2] deals with B7. The experiment in a line: competition ELISA: 0.1 µg/ml hIgG1 pre-incubated with the competitor, then binding to plate-bound HLA-DQ2.5:DQ2.5-glia-α1a. The method, then:
(§1) FIG. 2. […] (C) Eight different HLA-DQ2.5:gluten peptide complexes and HLA-DQ2.5:CLIP2 were used in ELISA for specificity analysis (n=2). mAb 2.12.E11 was included to control pMHC capture levels.
(§2) 96-well MaxiSorp microtiter plates (Nunc) were coated overnight at 4° C. with NeutrAvidin (Avidity, 10 ug/ml in PBS), before blocking with 4% skim milk powder in PBS (w/v). Biotinylated pMHC was captured onto the NeutrAvidin. […] 0.2 μg/ml mAb 2.12.E11 [Viken, H. D., et al., 1995] was detected using polyclonal anti-mouse IgG Fc-ALP (Sigma, 1:2000). […] Assays were performed at RT with duplicate wells, except for single clone screenings with only one well per sample.

Test [3] concerns the target B5. The test is described as above. The method, then: as §1, §2
The target of test [4] is B6. The description is as above. The method, then:
as §1, §2

The target in test [5] is B7. The experiment in a line: competition ELISA: 0.1 µg/ml hIgG1 pre-incubated with 33mer α-gliadin, then binding to plate-bound HLA-DQ2.5:DQ2.5-glia-α1a. The method, then: as §1, §2
The target in test [6] is B5. Described as above. The method, then:
as §1, §2

Test [7] deals with B6. Described as above. The method, then:
as §1, §2

Test [8] has as its target B3. The test is described as follows: competition ELISA, hIgG1 pre-incubated with competitor. The method, then:
as §1, §2

The target of test [9] is B8. Described as above. The method, then: as §1, §2
For the test “33mer α-gliadin peptide”, the target named is B4. Described as above. The method, then: as §1, §2
Test [10] deals with T1, BSA. The experiment in a line: ELISA, hIgG1 (printed anti-glia1a_no106), control well with BSA.

B1: 206 hIgG1 (antibody, V domains shown)
VH: QVQLVQSGAEVKKPGSSVKVSCKASGGTFSSYAISWVRQAPGQGLEWMGGIIPIFGTANYAQKFQGRVTITADESTSTAYMELSSLRSEDTAVYYCARDVQRMGMDVWGQGTTVTVSS
VL: DIQMTQSPSSVSTSVGDRVTITCRASQDISNWLAWYQQKPGKAPKLLIYDSSTLQSGVPSRFSGSGSGTDFTLTISTLQPEDFATYYCQQFNSYPLTFGGGTKVDIKR
notes: full-length human IgG1/kappa
As to B1, in the test with BSA [1], the binding result is “no binding (tested: 0.5 µg/ml)”.

B2: 228 hIgG1 (antibody, V domains shown)
VH: QVQLVQSGAEVKKPGSSVKVSCKASGGTFSSYAISWVRQAPGQGLEWMGGIIPIFGTANYAQKFQGRVTITADESTSTAYMELSSLRSEDTAVYYCARGQVLIWTYYYGMDVWGQGTTVTVSS
VL: DIRLTQSPSSLSASVGDRVTITCQASQDISNYLNWYQQKPGKAPKLLIYDASNLETGVPSRFSGSGSGTDFTFIISSLQPEDIATYYCQQYDNLPLTFGGGTKLEIKR
notes: full-length human IgG1/kappa
On to B2, for which the binding result in the test with BSA [1] is “no binding (tested: 0.5 µg/ml)”.

B3: the binding result with R2A1-8E hIgG1 [2], with R3A2-9F hIgG1 [3] and in the test with R4A1-3A (107) hIgG1 [4] was “no binding (tested: 1 µM)” each time.

For B4, the binding result with R2A1-8E hIgG1 [5], in the test with R3A2-9F hIgG1 [6] and in the test with R4A1-3A (107) hIgG1 [7] was “no binding (tested: 1 µM)” throughout.

With B5, the binding result in test [8] was “no binding (tested: 1 µM)”; in test [9], “no binding (tested: 1 µM)”; in the test with 33mer α-gliadin peptide, “no binding (tested: 1 µM)”; with BSA [10], “no binding (tested: 0.5 µg/ml)”.

Take B6: the binding result (in [8]; in [9]; in the test with 33mer α-gliadin peptide) was “no binding (tested: 1 µM)” throughout.

With B7, the binding result (in test [8]; in [9]; with 33mer α-gliadin peptide) was “no binding (tested: 1 µM)” in each case.

Regarding B8, the binding result in the test with R2A1-8E hIgG1 [2], with R3A2-9F hIgG1 [3] and with R4A1-3A (107) hIgG1 [4] was “no binding (tested: 1 µM)” throughout.

B9: 220 hIgG1 (antibody, V domains shown)
VH: QVQLVESGAEVKKPGSSVKVSCKASGGTFSSYAISWVRQAPGQGLEWMGGIIPIFGTANYAQKFQGRATITADESTSTAYMELSSLRSEDTAVYYCARGRNTYCSGGSCYSPHFDYWGQGTLVTVSS
VL: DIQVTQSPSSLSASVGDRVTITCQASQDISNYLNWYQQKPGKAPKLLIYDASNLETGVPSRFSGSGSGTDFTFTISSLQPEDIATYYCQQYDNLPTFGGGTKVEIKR
notes: full-length human IgG1/kappa
As to B9, in the test with BSA [1], the binding result is given as “no binding (tested: 0.5 µg/ml)”.
